Source: patent US11021532
Like-named read-outs stand apart in the source and are kept apart here.

B1: COVID19_P24_A09 (scFv, V domains shown)
VH: QVQLVQSGAEVKKPGASVKVSCKASGYTFTDYYMQWVRQAPGQGLEWMGWIDPHSGATNYAHSFQGRVTMTRDTSTSTVYMELSSLRSEDTAVYYCARLEGGSYWTGYFDLWGRGTLVTVSS
VL: EIVMTQSPATLSVSPGERATLSCRASQSVSSNYLAWYQQKPGQAPRLLIYAVSSRATGIPARFSGSGSGTEFTLTISSLQSEDFAVYYCQQYGSSPLTFGGGTKVEIKR
B2: COVID19_P24_F11 (scFv, V domains shown)
VH: EVQLLESGGGLVQPGGSLRLSCAASGFTFSGSAMHWVRQAPGKGLEYVSAISRNGGTTYYADSVKGRFTISRDNSKNTLYLQMNSLRAEDTAVYYCAKDGTLITTTLDYWGQGTLVTVSS
VL: DIQMTQSPSSLSASVGDRVTITCRASQSIGYYLNWYQQKPGKAPKLLIYAASSLQSGVPSRFSGSGSGTDFTLTISSLQPEDFATYYCQQSYTTPLTFGGGTKVEIKR
B3: COVID19_P11_G03 (scFv, V domains shown)
VH: QVQLVQSGAEVKKPGASVKVSCKASGYTFTSYEINWVRQAPGQGLEWMGIINPSDGSSTYAQKFQGRVTMTRDTSTSTVYMELSSLRSEDTAVYYCARDRGYSYDHDQIYYYYGMDVWGQGTTVTVSS
VL: DIQMTQSPSSLSASVGDRVTITCRVSQGISSYLNWYQQKPGKAPKLLIYAASILQSGVPSRFSGSGSGTDFTLTISSLQPEDFATYYCQQGYSTPFTFGPGTKVDIKR
B4: COVID19_P24_H04 (scFv, V domains shown)
VH: QVQLVQSGAEVKKPGASVKVSCKASGYTFTDYHMHWVRQAPGQGLEWMGWMNPNSGNTSYAQKFQGRVTMTRDTSTSTVYMELSSLRSEDTAVYYCAGMGMGRDGYNSRAFDIWGQGTMVTVSS
VL: DIQMTQSPSSLSASVGDRVTITCRASQSISTYLNWYQQKPGKAPKLLIYAASTLQSGVPSRFSGSGSGTDFTLTISSLQPEDFATYYCQQSYSMPLTFGQGTKVEIKR
B5: COVID19_P24_A11 (scFv, V domains shown)
VH: QVQLVQSGAEVKKPGASVKVSCKASGYTFTENEMHWVRQAPGQGLEWMGIINPSGGSTSYAQKFQGRVTMTRDTSTSTVYMELSSLRSEDTAVYYCARDLMDIVVVPWLGGMDVWGQGTTVTVSS
VL: DIQMTQSPSSLSASVGDRVTITCRASQAITNYLAWYQQKPGKAPKLLIYAASSLQSGVPSRFSGSGSGTDFTLTISSLQPEDFATYYCQQYYSYPPTFGQGTKLEIKR
B6: COVID19_P11_H02 (scFv, V domains shown)
VH: QVQLVQSGAEVKKPGASVKVSCKASGGTFTSYHMHWVRQAPGQGLEWMGWMNPNSGNTGYALKFQGRVTMTRDTSTSTVYMELSSLRSEDTAVYYCASFERFGELVPETFDYWGQGTLVTVSS
VL: DIQMTQSPSSLSASVGDRVTITCRASQGIRNDLAWYQQKPGKAPKLLIYAASSLQSGVPSRFSGSGSGTDFTLTISSLQPEDFATYYCQQSYSTPPTFGQGTKLEIKR
B7: COVID19_P11_D12 (scFv, V domains shown)
VH: QVQLVQSGAEVKKPGASVKVSCKASGYTFTENEMHWVRQAPGQGLEWMGIINPSGGSTSYAQKFQGRVTMTRDTSTSTVYMELSSLRSEDTAVYYCAKTRYGGNSRSRYYYYGMDVWGQGTTVTVSS
VL: DIQMTQSPSSLSASVGDRVTITCRASQHISSYLNWYQQKPGKAPKLLIYAASALQSGVPSRFSGSGSGTDFTLTISSLQPEDFATYYCQQGYGTPYTFGQGTKVEIKR
B8: COVID19_P24_H06 (scFv, V domains shown)
VH: EVQLLESGGGLVQPGGSLRLSCAASGFSFSNYDMHWVRQAPGKGLEWVAVISYDGGFKLYADSVKGRFTISRDNAKNSLYLRMNSLRSEDTAVYYCARGQVRGSGPQVVVMDVWGKGTTVTVSS
VL: DIQMTQSPSSLSASVGDRVTITCQASQGIRNDLGWYQQKPGKAPKLLIYDASRLQSGVPSRFSGSGSGTDFTLTISSLQPEDFATYYCQQYYSTPPLTFGQGTKVEIKR
B9: COVID19_P24_D09 (scFv, V domains shown)
VH: QVQLVQSGAEVKKPGASVKVSCKASGGTFSSYAISWVRQAPGQGLEWMGIVNPSSGSTTYAQKFQGRVTMTRDTSTSTVYMELSSLRSEDTAVYYCARVRGSAAIAMMDVWGQGTTVTVSS
VL: DIQMTQSPSSLSASVGDRVTITCRASQDIRNELGWYQQKPGKAPKLLIYAASSLQSGVPSRFSGSGSGTDFTLTISSLQPEDFATYYCQQSYSTPPWTFGQGTKLEIKR
B10: COVID19_P23_F10 (scFv, V domains shown)
VH: QVQLVQSGAEVKKPGASVKVSCKASGDTFSNYGISWVRQAPGQGLEWMGWMNPNSGGTNYAQKFQGRVTMTRDTSTSTVYMELSSLRSEDTAVYYCAIGTTVVTPFGYWGQGTLVNVSS
VL: EIVMTQSPATLSVSPGERATLSCRASESVSSRYLAWYQQKPGQAPRLLIYGASTRATGIPARFSGSGSGTEFTLTISSLQSEDFAVYYCQQGYKNPPTFGQGTKVEIKR
B11: COVID19_P24_C06 (scFv, V domains shown)
VH: QVQLVQSGAEVKKPGASVKVSCKASGYIFTSYPIHWVRQAPGQGLEWMGWMNPNSGNTGYAQKFQGRVTMTRDTSTSTVYMELSSLRSEDTAVYYCARDRGSYDTDAFDIWGQGTMVTVSS
VL: DIQMTQSPSSLSASVGDRVTITCRASQDISNYLNWYQQKPGKAPKLLIYAASNLQSGVPSRFSGSGSGTDFTLTISSLQPEDFATYYCQQANSFPSTFGQGTKLEIKR
B12: COVID19_P11_H07 (scFv, V domains shown)
VH: QVQLVQSGAEVKKPGASVKVSCKASGYTFTSYDINWVRQAPGQGLEWMGWMNSNSGSTGYAQKFQGRVTMTRDTSTSTVYMELSSLRSEDTAVYYCARGWMAYDAFDIWGQGTMVTVSS
VL: DIQMTQSPSSLSASVGDRVTITCQASQSIYNYLNWYQQKPGKAPKLLIYDASNLETGVPSRFSGSGSGTDFTLTISSLQPEDFATYYCQQAISFPLTFGGGTKVEIKR
B13: COVID19_P24_B09 (scFv, V domains shown)
VH: QVQLVQSGAEVKKPGSSVYVSCKASGYTFTSYGISWVRQAPGQGLEWMGGIIPMFGTTNYAQKFQGRVTITADKSTSTAYMELSSLRSEDTAVYYCARDRGDTIDYWGQGTLVTVSS
VL: DIQMTQSPSSLSASVGDRVTITCRASQGISNNLNWYQQKPGKAPKLLIYAASSLESGVPSRFSGSGSGTDFTLTISSLQPEDFATYYCQQGNGFPLTFGPGTKVDIKR
B14: COVID19_P23_G10 (scFv, V domains shown)
VH: QVQLVQSGAEVKKPGSSVKVSCKASGYTFTDYYIQWVRQAPGQGLEWMGWINPNSGGPNYAQKFQGRVTITADESTSTAYMELSSLRSEDTAVYYCARVDYGDYGRLEDYWGQGTLVTVSS
VL: DIQMTQSPSSLSASVGDRVTITCRASQSIYSWLAWYQQKPGKAPKLLIYDASSLESGVPSRFSGSGSGTDFTLTISSLQPEDFATYYCQQLNSYPYTFGQGTKVEIKR
B15: COVID19_P24_G09 (scFv, V domains shown)
VH: QVQLVQSGAEVKKPGASVKVSCKASGYTFTRYYIHWVRQAPGQGLEWMGIINPSGGSTTYAQKFQGRVTMTRDTSTSTVYMELSSLRSEDTAVYYCAKGAPHDYIWGSYRPDAFDIWGQGTMVTVSS
VL: DIQMTQSPSSLSASVGDRVTITCRASENIDSWLAWYQQKPGKAPKLLIYEASTLESGVPSRFSGSGSGTDFTLTISSLQPEDFATYYCHQYLSSPETFGQGTKVEIKR
B16: COVID19_P24_C10 (scFv, V domains shown)
VH: QVQLVQSGAEVKKPGASVKVSCKASGYTFTENEMHWVRQAPGQGLEWMGIINPSGGSTSYAQKFQGRVTMTRDTSTSTVYMELSSLRSEDTAVYYCARDSGVDTATLRYYYYGMDVWGQGTTVTVSS
VL: DIQMTQSPSSLSASVGDRVTITCQASQDISKYLNWYQQKPGKAPKLLIYGASTLSDGVPSRFSGSGSGTDFTLTISSLQPEDFATYYCQQGYSTPYSFGQGTKLEIKR
B17: COVID19_P11_D08 (scFv, V domains shown)
VH: QVQLVQSGAEVKKPGASVKVSCKASGYTFTENEMHWVRQAPGQGLEWMGIINPSGGSTSYAQKFQGRVTMTRDTSTSTVYMELSSLRSEDTAVYYCARDSGVDTATLRYYYYGMDVWGQGTTVTVSS
VL: DIQMTQSPSSLSASVGDRVTITCQASQDISKYLNWYQQKPGKAPKLLIYGASTLSDGVPSRFSGSGSGTDFTLTISSLQPEDFATYYCQQGYSTPYSFGQGTKLEIKR

How the values were obtained:
[1] = target: SARS-CoV-2 Receptor Binding Domain (RBD) protein (SARS-CoV-2); assay: SPR (Carterra LSA), scFv captured via anti-V5, RBD as analyte, 1:1 fit
[2] = target: SARS-CoV-2 Receptor Binding Domain (RBD) protein (SARS-CoV-2); assay: SPR (Carterra LSA), scFv captured via anti-V5, RBD as analyte
[3] = target: SARS-CoV-2 Receptor Binding Domain (RBD) protein (SARS-CoV-2)

| Binder | Kd [1] [nM] | koff [1] [s⁻¹] | kon [1] [M⁻¹ s⁻¹] | Kd [2] [nM] | Kd [3] [nM] |
| --- | --- | --- | --- | --- | --- |
| B1 | 1.51 | 0.000229 | 152000 | < 50 | – |
| B2 | 0.46 | 0.00028 | 616000 | < 50 | – |
| B3 | 6.45 | 0.00064 | 99000 | < 50 | – |
| B4 | 4 | 0.00068 | 170000 | < 50 | – |
| B5 | 1.95 | 0.000308 | 158000 | < 50 | – |
| B6 | 2.2 | 0.00071 | 320000 | < 50 | – |
| B7 | 4.3 | 0.00034 | 79000 | < 50 | – |
| B8 | 0.5 | 5.7e-05 | 120000 | < 50 | – |
| B9 | 0.5 | 5.7e-05 | 114000 | < 50 | – |
| B10 | 7.86 | 0.00077 | 98000 | < 50 | – |
| B11 | 0.3 | 5.7e-05 | 228000 | < 50 | – |
| B12 | 0.5 | 5.7e-05 | 110000 | – | < 50 |
| B13 | 27.5 | 0.0139 | 508000 | < 50 | – |
| B14 | 0.37 | 5.7e-05 | 154000 | < 50 | – |
| B15 | 1.56 | 0.000512 | 329000 | < 50 | – |
| B16 | 0.88 | 0.000487 | 553000 | < 50 | – |
| B17 | 4.7 | 0.00053 | 110000 | < 50 | – |
